Four molecules from article PMC9324849, “A Light‐Activatable Photocaged Variant of the Ultra‐High Affinity ALFA‐Tag Nanobody” (Chembiochem, 2022) can be followed below.

Assay [1] concerns the target sfGFP-ALFA-tag (3). Briefly: MST; 10 nM sfGFP-ALFA-tag (3) with a dilution series of photobody 1, before light activation.
Assay [2] concerns the target ALFA-Pb displayed on E. coli cells (AIDA autodisplay system), photocaged, not irradiated. Briefly: flow cytometry on cells; E. coli cells displaying the nanobody (AIDA autodisplay system), not irradiated, mixed with a dilution series of fluorescent sfGFP-ALFA-tag (3).
The target of assay [3] is T1, sfGFP-ALFA-tag (3) (synthetic construct …).
T1 construct: ALFA-tag, laboratory-designed amphiphilic peptide of 13 amino acids; sfGFP is the fluorescent marker read in MST and flow cytometry; also called protein 3; fusion construct sfGFP-ALFA-tag
T1 chain: SRLEEELRRRLTE
Briefly: flow cytometry on cells; E. coli cells displaying the ALFA-Pb irradiated in 100 uL PBS (OD600=1; 365 nm, 530 mW; 5 cm distance), then different concentrations of sfGFP-ALFA-tag (3) added. Particulars: one partner purified. A general note: Flow cytometry measures light scatter and fluorescence of single cells or particles in a stream.

The target of assay [4] is T1, sfGFP-ALFA-tag (3). The assay is described as follows: flow cytometry on cells; E. coli cells displaying the nanobody (AIDA autodisplay system), not irradiated, mixed with a dilution series of fluorescent sfGFP-ALFA-tag (3). Particulars: one partner purified.

With “ALFA-tag photobody (ALFA-Pb) 1, Tyr42ONBY, photocaged (VHH)”, the Kd – broadly, a measure of binding affinity in units of concentration – in the assay with sfGFP-ALFA-tag (3) [1] stood at 7900 nM.

As for sfGFP-ALFA-tag (3), the Kd in assay [2] is 3200 nM.

B1: decaged ALFA-Pb displayed on E. coli cells (after irradiation at 365 nm) (VHH)
VHH: EVQLQESGGGLVQPGGSLRLSCTASGVTISALNAMAMGWYRQAPGERRVMVAAVSERGNAMYRESVQGRFTVTRDFTNKMVSLQMDNLKPEDTAVYYCHVLEDRVDSFHDYWGQGTQVTVSS
notes: Made from m2 by UV light
B1 displayed a Kd in the assay with sfGFP-ALFA-tag (3) [3] of 0.183 ± 0.006 nM.

B2: ALFA-Nb (wild type) displayed on E. coli cells, unirradiated control (VHH)
VHH: EVQLQESGGGLVQPGGSLRLSCTASGVTISALNAMAMGWYRQAPGERRVMVAAVSERGNAMYRESVQGRFTVTRDFTNKMVSLQMDNLKPEDTAVYYCHVLEDRVDSFHDYWGQGTQVTVSS
notes: ALFA-tag nanobody (ALFA-Nb), wild type; also called unirradiated ALFA-Nb control; ALFA-tag nanobody
In the assay with sfGFP-ALFA-tag (3) [4], B2 had a Kd of 0.346 ± 0.005 nM.
